Experiments:
Settings in all cases: tags: Sigma; label: 32P
[1] = biological target: T1, Glucocorticoid receptor (GR) (UniProt P04150 P04150:1-777); experiment: EMSA; 20 min 25 C; unlabeled NS does not compete GRE probe (FIG. 3B lane 6)
Excerpt: (§1) In contrast, both D-sequences in the scAAV2 genomes are present in double-stranded forms. Since GR activation had no effect on the transduction efficiency for ssAAV2 vectors, it was hypothesized that the D-sequence might contain a putative GRE site. Indeed, there exists a sequence, GGTTCCT, at the end of the D-sequence, which shares partial homology to the consensus GRE site, 5'-GGTA-CANNNTGT(T/C)CT-3' (SEQ ID NO: 1) (34). The TGTTCT half-site is an essential core element which has been reported to be sufficient to relay glucocorticoid signaling (34). To experimentally test the possibility whether purified GR protein could bind to the D-sequence, electrophoretic mobility-shift assays (EMSAs) were carried out using double-stranded D-sequence oligonucleotides (D: 5'-[…]-3') (SEQ ID NO: 6). One of the conventional double-stranded GRE sequences (GRE: 5'-[…]-3') (SEQ ID NO: 13), and a non-specific (NS) sequence (NS: 5'-[…]-3') (SEQ ID NO: 10) were used as appropriate positive and negative controls, respectively. Each of the ^32P-labeled oligonucleotide probes was individually incubated with purified GR proteins for 20 minutes at 25° C. and then subjected to EMSAs. […]

[2] = biological target: T1, Glucocorticoid receptor (GR); experiment: EMSA; 20 min 25 C; GR binding to GRE only slightly more efficient than to D by densitometry; unlabeled D competes GRE probe at 2- to 50-fold excess
[3] = biological target: T1, Glucocorticoid receptor (GR); experiment: EMSA; 20 min 25 C, 6% gel 0.5xTBE; competed by 10-fold excess unlabeled GRE and 2- to 50-fold unlabeled D-sequence, not by NS (FIG. 3B)
Excerpt: as §1

T1 sequence (P04150 whole entry, one chain of several): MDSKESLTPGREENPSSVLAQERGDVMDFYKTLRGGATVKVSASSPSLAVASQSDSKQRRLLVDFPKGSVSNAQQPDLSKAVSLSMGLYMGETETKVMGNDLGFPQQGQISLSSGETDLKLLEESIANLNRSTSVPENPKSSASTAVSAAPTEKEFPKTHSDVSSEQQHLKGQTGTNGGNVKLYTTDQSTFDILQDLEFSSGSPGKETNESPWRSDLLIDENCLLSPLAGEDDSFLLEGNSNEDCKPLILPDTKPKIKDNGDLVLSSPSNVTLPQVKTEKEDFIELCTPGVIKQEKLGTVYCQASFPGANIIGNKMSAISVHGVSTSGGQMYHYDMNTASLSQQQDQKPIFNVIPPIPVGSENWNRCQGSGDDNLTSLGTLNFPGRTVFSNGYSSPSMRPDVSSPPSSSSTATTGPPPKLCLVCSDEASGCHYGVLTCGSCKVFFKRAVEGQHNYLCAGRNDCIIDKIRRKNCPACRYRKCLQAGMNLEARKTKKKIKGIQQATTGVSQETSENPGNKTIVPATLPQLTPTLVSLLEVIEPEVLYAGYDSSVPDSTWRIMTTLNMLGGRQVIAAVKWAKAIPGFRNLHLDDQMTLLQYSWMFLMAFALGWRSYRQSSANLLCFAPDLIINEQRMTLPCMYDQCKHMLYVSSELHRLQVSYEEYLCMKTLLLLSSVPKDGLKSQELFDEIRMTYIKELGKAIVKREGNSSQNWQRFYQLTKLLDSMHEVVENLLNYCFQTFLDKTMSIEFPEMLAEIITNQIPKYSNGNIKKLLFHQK

B1: Non-specific (NS) (dsDNA)
DNA 1: TATTAGATCTGATGGCCGCT
DNA 2: AGCGGCCATCAGATCTAATA
Does B1 bind [1]?
Result: no binding

B2: AAV2 D-sequence (D) (dsDNA)
DNA 1: CTCCATCACTAGGGGTTCCT
DNA 2: AGGAACCCCTAGTGATGGAG
Does B2 bind [2]?
Result: binds

B3: GRE (dsDNA)
DNA 1: CTAGGCTGTACAGGATGTTCTGCCTAG
DNA 2: CTAGGCAGAACATCCTGTACAGCCTAG
Does B3 bind [3]?
Result: binds

— US10900053, “Genome-modified recombinant adeno-associated virus vectors” (University of Florida Research Foundation, Incorporated)
